Consider 2 variants from IntAct's records for PubMed 16628218.

B1: Beta-chimaerin (Homo sapiens), P52757 (parent)
chain: MAASSNSSLSGSSVSSDAEEYQPPIWKSYLYQLQQEAPRPKRIICPREVENRPKYYGREFHGIISREQADELLGGVEGAYILRESQRQPGCYTLALRFGNQTLNYRLFHDGKHFVGEKRFESIHDLVTDGLITLYIETKAAEYISKMTTNPIYEHIGYATLLREKVSRRLSRSKNEPRKTNVTHEEHTAVEKISSLVRRAALTHNDNHFNYEKTHNFKVHTFRGPHWCEYCANFMWGLIAQGVRCSDCGLNVHKQCSKHVPNDCQPDLKRIKKVYCCDLTTLVKAHNTQRPMVVDICIREIEARGLKSEGLYRVSGFTEHIEDVKMAFDRDGEKADISANVYPDINIITGALKLYFRDLPIPVITYDTYSKFIDAAKISNADERLEAVHEVLMLLPPAHYETLRYLMIHLKKVTMNEKDNFMNAENLGIVFGPTLMRPPEDSTLTTLHDMRYQKLIVQILIENEDVLF

Variants of B1 are the subject of the assay. To be noted: with rac1_human RAC1, P63000.
Take MAASSNSSLSGSSVSSDAEEYQPPIWKSYLYQLQQEAPRPKRIICPREVENRPKYYGREFHGIISREQADELLGGVEGAYILRESQRQPGCYTLALRFGNQTLNYRLFHDGKHFVGEKRFESIHDLVTDGLITLYIETKAAEYISKMTTNPIYEHIGYATLLREKVSRRLSRSKNEPRKTNVTHEEHTAVEKISSLVRRAALTHNDNHFNYEKTHNFKVHTFRGPHWCEYCANFMWGLIAQGVRCSDCGLNVHKQCSKHVPNDAQPDLKRIKKVYCCDLTTLVKAHNTQRPMVVDICIREIEARGLKSEGLYRVSGFTEHIEDVKMAFDRDGEKADISANVYPDINIITGALKLYFRDLPIPVITYDTYSKFIDAAKISNADERLEAVHEVLMLLPPAHYETLRYLMIHLKKVTMNEKDNFMNAENLGIVFGPTLMRPPEDSTLTTLHDMRYQKLIVQILIENEDVLF [C264A]: the “effect of a mutation on the interaction” value is reported as “disrupting interaction”.
Take MAASSNSSLSGSSVSSDAEEYQPPIWKSYLYALQQEAPRPKRIICPREVENRPKYYGREFHGIISREQADELLGGVEGAYILRESQRQPGCYTLALRFGNQTLNYRLFHDGKHFVGEKRFESIHDLVTDGLITLYIETKAAEYISKMTTNPIYEHIGYATLLREKVSRRLSRSKNEPRKTNVTHEEHTAVEKISSLVRRAALTHNDNHFNYEKTHNFKVHTFRGPHWCEYCANFMWGLIAQGVRCSDCGLNVHKQCSKHVPNDCQPDLKRIKKVYCCDLTTLVKAHNTQRPMVVDICIREIEARGLKSEGLYRVSGFTEHIEDVKMAFDRDGEKADISANVYPDINIITGALKLYFRDLPIPVITYDTYSKFIDAAKISNADERLEAVHEVLMLLPPAHYETLRYLMIHLKKVTMNEKDNFMNAENLGIVFGPTLMRPPEDSTLTTLHDMRYQKLIVQILIENEDVLF [Q32A]: the “effect of a mutation on the interaction” value was “increasing interaction”.
